The target in the data set is T1, DHX36 (UniProt Q9H2U1).
T1 sequence (Q9H2U1 whole entry, looked up): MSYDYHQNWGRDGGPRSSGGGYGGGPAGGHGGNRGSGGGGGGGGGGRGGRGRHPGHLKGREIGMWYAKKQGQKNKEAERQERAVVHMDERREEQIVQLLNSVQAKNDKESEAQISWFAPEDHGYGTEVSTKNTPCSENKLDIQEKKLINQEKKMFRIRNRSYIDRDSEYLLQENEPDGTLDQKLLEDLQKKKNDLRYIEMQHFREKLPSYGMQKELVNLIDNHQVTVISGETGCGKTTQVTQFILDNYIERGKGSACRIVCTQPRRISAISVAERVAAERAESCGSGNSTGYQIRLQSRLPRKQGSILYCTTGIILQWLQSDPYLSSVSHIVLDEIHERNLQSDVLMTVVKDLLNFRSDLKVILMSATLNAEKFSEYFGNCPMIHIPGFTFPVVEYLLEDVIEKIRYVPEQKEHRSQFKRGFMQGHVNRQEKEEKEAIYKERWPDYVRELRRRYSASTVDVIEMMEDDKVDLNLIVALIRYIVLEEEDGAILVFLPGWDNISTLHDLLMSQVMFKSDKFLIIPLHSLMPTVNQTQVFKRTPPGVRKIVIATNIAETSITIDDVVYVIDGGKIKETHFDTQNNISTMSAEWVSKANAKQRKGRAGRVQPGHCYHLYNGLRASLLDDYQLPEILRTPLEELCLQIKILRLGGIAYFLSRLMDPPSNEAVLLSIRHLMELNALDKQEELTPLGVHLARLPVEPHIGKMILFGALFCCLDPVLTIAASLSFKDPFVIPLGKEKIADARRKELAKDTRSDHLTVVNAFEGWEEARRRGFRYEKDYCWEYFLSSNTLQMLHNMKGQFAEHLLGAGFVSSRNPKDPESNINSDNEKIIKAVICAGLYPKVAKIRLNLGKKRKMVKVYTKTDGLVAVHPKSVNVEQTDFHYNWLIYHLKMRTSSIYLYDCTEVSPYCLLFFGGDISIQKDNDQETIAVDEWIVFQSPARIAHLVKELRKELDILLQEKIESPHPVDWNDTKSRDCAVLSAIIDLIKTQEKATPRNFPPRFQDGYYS
As to the kind of experiment: ELISA. The settings on record: ELISA performed as in Zyner et al. (ref 43); buffer, salt, pH and temperature not given in the material.

Turning to UGUGGGAGGGGCGGGUCUGGGUGC [NRAS G4], the Kd amounted to 900 pM.
